Assay results reported in EP4782466A1, “FUSION PROTEIN FOR INACTIVATING CORONAVIRUS AND USE THEREOF” (priority 2023, dated 2025).

Assays:
Test in all cases: cell-based or functional assay
[1] = target: S protein of SARS-CoV-2 Alpha (B.1.1.7) (SARS-CoV-2 Alpha (B.1.1.7))
[2] = target: S protein of SARS-CoV-2 Beta (B.1.351) (SARS-CoV-2 Beta (B.1.351))
[3] = target: S protein of SARS-CoV-2 Delta (B.1.617.2) (SARS-CoV-2 Delta (B.1.617.2))
[4] = target: S protein of SARS-CoV-2 Gamma (P.1) (SARS-CoV-2 Gamma (P.1))
[5] = target: S protein of SARS-CoV-2 Lambda (SARS-CoV-2 Lambda)
[6] = target: S protein of SARS-CoV-2 Omicron BA.1 (SARS-CoV-2 BA.1)
[7] = target: S protein of SARS-CoV-2 Omicron BA.2 (SARS-CoV-2 BA.2)
[8] = target: S protein of SARS-CoV-2 Omicron BA.2.12.1 (SARS-CoV-2 BA.2.12.1)
[9] = target: S protein of SARS-CoV-2 Omicron BA.2.2 (SARS-CoV-2 BA.2.2)
[10] = target: S protein of SARS-CoV-2 Omicron BA.2.75 (SARS-CoV-2 BA.2.75)
[11] = target: S protein of SARS-CoV-2 Omicron BA.2.9 (SARS-CoV-2 BA.2.9)
[12] = target: S protein of SARS-CoV-2 Omicron BA.3 (SARS-CoV-2 BA.3)
[13] = target: S protein of SARS-CoV-2 Omicron BA.4.6 (SARS-CoV-2 BA.4.6)
[14] = target: S protein of SARS-CoV-2 Omicron BA.5 (SARS-CoV-2 BA.5)
[15] = target: S protein of SARS-CoV-2 Omicron BF.7 (SARS-CoV-2 BF.7)
[16] = target: S protein of SARS-CoV-2 Omicron BQ.1 (SARS-CoV-2 BQ.1)
[17] = target: S protein of SARS-CoV-2 Omicron XBB (SARS-CoV-2 XBB)

ACE2 protein alone (ACE2 peptidase domain alone) (from UniProt Q9BYF1 18-615) (receptor)
EC50, inactivation of pseudovirus (Caco-2, luciferase) [1]: 243 nM
IC50, inhibition of pseudovirus infection (Caco-2, luciferase) [1]: 6.2 nM
EC50, inactivation of pseudovirus (Caco-2, luciferase) [2]: 123 nM
IC50, inhibition of pseudovirus infection (Caco-2, luciferase) [2]: 16.1 nM
EC50, inactivation of pseudovirus (Caco-2, luciferase) [3]: 605 nM
IC50, inhibition of pseudovirus infection (Caco-2, luciferase) [3]: 4.85 nM
EC50, inactivation of pseudovirus (Caco-2, luciferase) [4]: 88.5 nM
IC50, inhibition of pseudovirus infection (Caco-2, luciferase) [4]: 15.1 nM
EC50, inactivation of pseudovirus (Caco-2, luciferase) [5]: 116 nM
IC50, inhibition of pseudovirus infection (Caco-2, luciferase) [5]: 12.8 nM
EC50, inactivation of pseudovirus (Caco-2, luciferase) [6]: 82.2 nM
IC50, inhibition of pseudovirus infection (Caco-2, luciferase) [6]: 18.7 nM
EC50, inactivation of pseudovirus (Caco-2, luciferase) [7]: 329 nM
IC50, inhibition of pseudovirus infection (Caco-2, luciferase) [7]: 12.6 nM
EC50, inactivation of pseudovirus (Caco-2, luciferase) [8]: 76.1 nM
IC50, inhibition of pseudovirus infection (Caco-2, luciferase) [8]: 10.6 nM
EC50, inactivation of pseudovirus (Caco-2, luciferase) [9]: 476 nM
IC50, inhibition of pseudovirus infection (Caco-2, luciferase) [9]: 11.9 nM
EC50, inactivation of pseudovirus (Caco-2, luciferase) [10]: 677 nM
IC50, inhibition of pseudovirus infection (Caco-2, luciferase) [10]: 26.5 nM
EC50, inactivation of pseudovirus (Caco-2, luciferase) [11]: 407 nM
IC50, inhibition of pseudovirus infection (Caco-2, luciferase) [11]: 7.63 nM
EC50, inactivation of pseudovirus (Caco-2, luciferase) [12]: 52.1 nM
IC50, inhibition of pseudovirus infection (Caco-2, luciferase) [12]: 6.51 nM
EC50, inactivation of pseudovirus (Caco-2, luciferase) [13]: 1160 nM
IC50, inhibition of pseudovirus infection (Caco-2, luciferase) [13]: 65.9 nM
EC50, inactivation of pseudovirus (Caco-2, luciferase) [14]: 336 nM
IC50, inhibition of pseudovirus infection (Caco-2, luciferase) [14]: 15.3 nM
EC50, inactivation of pseudovirus (Caco-2, luciferase) [15]: 192 nM
IC50, inhibition of pseudovirus infection (Caco-2, luciferase) [15]: 101 nM
EC50, inactivation of pseudovirus (Caco-2, luciferase) [16]: 149 nM
IC50, inhibition of pseudovirus infection (Caco-2, luciferase) [16]: 21.8 nM
EC50, inactivation of pseudovirus (Caco-2, luciferase) [17]: 212 nM
IC50, inhibition of pseudovirus infection (Caco-2, luciferase) [17]: 12.7 nM

AL2E protein (ACE2-linker-EK1 fusion protein with (GGGGS)2 linker) (from UniProt Q9BYF1 18-615)
IC50, inhibition of pseudovirus infection (Caco-2, luciferase) [1]: 0.22 nM
IC50, inhibition of pseudovirus infection (Caco-2, luciferase) [2]: 0.27 nM
IC50, inhibition of pseudovirus infection (Caco-2, luciferase) [3]: 0.32 nM
IC50, inhibition of pseudovirus infection (Caco-2, luciferase) [4]: 0.39 nM
IC50, inhibition of pseudovirus infection (Caco-2, luciferase) [5]: 0.09 nM
IC50, inhibition of pseudovirus infection (Caco-2, luciferase) [6]: 0.18 nM
IC50, inhibition of pseudovirus infection (Caco-2, luciferase) [7]: 0.16 nM
IC50, inhibition of pseudovirus infection (Caco-2, luciferase) [8]: 0.26 nM
IC50, inhibition of pseudovirus infection (Caco-2, luciferase) [9]: 0.4 nM
IC50, inhibition of pseudovirus infection (Caco-2, luciferase) [10]: 0.69 nM
IC50, inhibition of pseudovirus infection (Caco-2, luciferase) [11]: 0.43 nM
IC50, inhibition of pseudovirus infection (Caco-2, luciferase) [12]: 0.58 nM
IC50, inhibition of pseudovirus infection (Caco-2, luciferase) [13]: 1.03 nM
IC50, inhibition of pseudovirus infection (Caco-2, luciferase) [14]: 0.1 nM
IC50, inhibition of pseudovirus infection (Caco-2, luciferase) [15]: 0.46 nM
IC50, inhibition of pseudovirus infection (Caco-2, luciferase) [16]: 0.4 nM
IC50, inhibition of pseudovirus infection (Caco-2, luciferase) [17]: 0.64 nM

AL5E protein (ACE2-linker-EK1 fusion protein with (GGGGS)5 linker)
EC50, inactivation of pseudovirus (Caco-2, luciferase) [1]: 8.72 nM
Fold enhancement of AL5E over ACE2 (EC50, pseudovirus inactivation) [1]: 27.9 fold
Fold enhancement of AL5E over ACE2 (IC50, pseudovirus inhibition) [1]: 47.7 fold
IC50, inhibition of pseudovirus infection (Caco-2, luciferase) [1]: 0.13 nM
EC50, inactivation of pseudovirus (Caco-2, luciferase) [2]: 1.57 nM
Fold enhancement of AL5E over ACE2 (EC50, pseudovirus inactivation) [2]: 78.4 fold
Fold enhancement of AL5E over ACE2 (IC50, pseudovirus inhibition) [2]: 94.5 fold
IC50, inhibition of pseudovirus infection (Caco-2, luciferase) [2]: 0.17 nM
EC50, inactivation of pseudovirus (Caco-2, luciferase) [3]: 8.21 nM
Fold enhancement of AL5E over ACE2 (EC50, pseudovirus inactivation) [3]: 73.7 fold
Fold enhancement of AL5E over ACE2 (IC50, pseudovirus inhibition) [3]: 30.3 fold
IC50, inhibition of pseudovirus infection (Caco-2, luciferase) [3]: 0.16 nM
EC50, inactivation of pseudovirus (Caco-2, luciferase) [4]: 2.7 nM
Fold enhancement of AL5E over ACE2 (EC50, pseudovirus inactivation) [4]: 32.8 fold
Fold enhancement of AL5E over ACE2 (IC50, pseudovirus inhibition) [4]: 68.5 fold
IC50, inhibition of pseudovirus infection (Caco-2, luciferase) [4]: 0.22 nM
EC50, inactivation of pseudovirus (Caco-2, luciferase) [5]: 2.75 nM
Fold enhancement of AL5E over ACE2 (EC50, pseudovirus inactivation) [5]: 42 fold
Fold enhancement of AL5E over ACE2 (IC50, pseudovirus inhibition) [5]: 427 fold
IC50, inhibition of pseudovirus infection (Caco-2, luciferase) [5]: 0.03 nM
EC50, inactivation of pseudovirus (Caco-2, luciferase) [6]: 1.29 nM
Fold enhancement of AL5E over ACE2 (EC50, pseudovirus inactivation) [6]: 63.7 fold
Fold enhancement of AL5E over ACE2 (IC50, pseudovirus inhibition) [6]: 624 fold
IC50, inhibition of pseudovirus infection (Caco-2, luciferase) [6]: 0.03 nM
EC50, inactivation of pseudovirus (Caco-2, luciferase) [7]: 3.04 nM
Fold enhancement of AL5E over ACE2 (EC50, pseudovirus inactivation) [7]: 108 fold
Fold enhancement of AL5E over ACE2 (IC50, pseudovirus inhibition) [7]: 96.8 fold
IC50, inhibition of pseudovirus infection (Caco-2, luciferase) [7]: 0.13 nM
EC50, inactivation of pseudovirus (Caco-2, luciferase) [8]: 1.94 nM
Fold enhancement of AL5E over ACE2 (EC50, pseudovirus inactivation) [8]: 39.2 fold
Fold enhancement of AL5E over ACE2 (IC50, pseudovirus inhibition) [8]: 176 fold
IC50, inhibition of pseudovirus infection (Caco-2, luciferase) [8]: 0.06 nM
EC50, inactivation of pseudovirus (Caco-2, luciferase) [9]: 3.35 nM
Fold enhancement of AL5E over ACE2 (EC50, pseudovirus inactivation) [9]: 142 fold
Fold enhancement of AL5E over ACE2 (IC50, pseudovirus inhibition) [9]: 59.3 fold
Fold of AL5E over ACE2 (IC50, live BA.2.2 virus inhibition) [9]: 44 fold
IC50, inhibition of pseudovirus infection (Caco-2, luciferase) [9]: 0.2 nM
EC50, inactivation of pseudovirus (Caco-2, luciferase) [10]: 1.91 nM
Fold enhancement of AL5E over ACE2 (EC50, pseudovirus inactivation) [10]: 354 fold
Fold enhancement of AL5E over ACE2 (IC50, pseudovirus inhibition) [10]: 51 fold
IC50, inhibition of pseudovirus infection (Caco-2, luciferase) [10]: 0.52 nM
EC50, inactivation of pseudovirus (Caco-2, luciferase) [11]: 8.62 nM
Fold enhancement of AL5E over ACE2 (EC50, pseudovirus inactivation) [11]: 47.2 fold
Fold enhancement of AL5E over ACE2 (IC50, pseudovirus inhibition) [11]: 95.4 fold
IC50, inhibition of pseudovirus infection (Caco-2, luciferase) [11]: 0.08 nM
EC50, inactivation of pseudovirus (Caco-2, luciferase) [12]: 2.26 nM
Fold enhancement of AL5E over ACE2 (EC50, pseudovirus inactivation) [12]: 23.1 fold
Fold enhancement of AL5E over ACE2 (IC50, pseudovirus inhibition) [12]: 32.5 fold
IC50, inhibition of pseudovirus infection (Caco-2, luciferase) [12]: 0.2 nM
EC50, inactivation of pseudovirus (Caco-2, luciferase) [13]: 2.28 nM
Fold enhancement of AL5E over ACE2 (EC50, pseudovirus inactivation) [13]: 508 fold
Fold enhancement of AL5E over ACE2 (IC50, pseudovirus inhibition) [13]: 70.8 fold
IC50, inhibition of pseudovirus infection (Caco-2, luciferase) [13]: 0.93 nM
EC50, inactivation of pseudovirus (Caco-2, luciferase) [14]: 2.27 nM
Fold enhancement of AL5E over ACE2 (EC50, pseudovirus inactivation) [14]: 148 fold
Fold enhancement of AL5E over ACE2 (IC50, pseudovirus inhibition) [14]: 382 fold
IC50, inhibition of pseudovirus infection (Caco-2, luciferase) [14]: 0.04 nM
EC50, inactivation of pseudovirus (Caco-2, luciferase) [15]: 1.99 nM
Fold enhancement of AL5E over ACE2 (EC50, pseudovirus inactivation) [15]: 96.3 fold
Fold enhancement of AL5E over ACE2 (IC50, pseudovirus inhibition) [15]: 362 fold
IC50, inhibition of pseudovirus infection (Caco-2, luciferase) [15]: 0.28 nM
EC50, inactivation of pseudovirus (Caco-2, luciferase) [16]: 3.73 nM
Fold enhancement of AL5E over ACE2 (EC50, pseudovirus inactivation) [16]: 40 fold
Fold enhancement of AL5E over ACE2 (IC50, pseudovirus inhibition) [16]: 136 fold
IC50, inhibition of pseudovirus infection (Caco-2, luciferase) [16]: 0.16 nM
EC50, inactivation of pseudovirus (Caco-2, luciferase) [17]: 4.69 nM
Fold enhancement of AL5E over ACE2 (EC50, pseudovirus inactivation) [17]: 45.2 fold
Fold enhancement of AL5E over ACE2 (IC50, pseudovirus inhibition) [17]: 74.5 fold
IC50, inhibition of pseudovirus infection (Caco-2, luciferase) [17]: 0.17 nM

AL6E protein (ACE2-linker-EK1 fusion protein with (GGGGS)6 linker)
IC50, inhibition of pseudovirus infection (Caco-2, luciferase) [1]: 0.25 nM
IC50, inhibition of pseudovirus infection (Caco-2, luciferase) [2]: 0.25 nM
IC50, inhibition of pseudovirus infection (Caco-2, luciferase) [3]: 0.31 nM
IC50, inhibition of pseudovirus infection (Caco-2, luciferase) [4]: 0.28 nM
IC50, inhibition of pseudovirus infection (Caco-2, luciferase) [5]: 0.07 nM
IC50, inhibition of pseudovirus infection (Caco-2, luciferase) [6]: 0.11 nM
IC50, inhibition of pseudovirus infection (Caco-2, luciferase) [7]: 0.21 nM
IC50, inhibition of pseudovirus infection (Caco-2, luciferase) [8]: 0.17 nM
IC50, inhibition of pseudovirus infection (Caco-2, luciferase) [9]: 0.24 nM
IC50, inhibition of pseudovirus infection (Caco-2, luciferase) [10]: 1.4 nM
IC50, inhibition of pseudovirus infection (Caco-2, luciferase) [11]: 0.09 nM
IC50, inhibition of pseudovirus infection (Caco-2, luciferase) [12]: 0.27 nM
IC50, inhibition of pseudovirus infection (Caco-2, luciferase) [13]: 1.96 nM
IC50, inhibition of pseudovirus infection (Caco-2, luciferase) [14]: 0.13 nM
IC50, inhibition of pseudovirus infection (Caco-2, luciferase) [15]: 1.01 nM
IC50, inhibition of pseudovirus infection (Caco-2, luciferase) [16]: 0.86 nM
IC50, inhibition of pseudovirus infection (Caco-2, luciferase) [17]: 0.23 nM
